Results on one molecule are retold here after publication PMC4657161 (The Journal of Cell Biology, 2015).

The target in this assay is T1, Rab40A (on the HuProt array) (human, UniProt Q8WXH6 1-277).
T1 sequence: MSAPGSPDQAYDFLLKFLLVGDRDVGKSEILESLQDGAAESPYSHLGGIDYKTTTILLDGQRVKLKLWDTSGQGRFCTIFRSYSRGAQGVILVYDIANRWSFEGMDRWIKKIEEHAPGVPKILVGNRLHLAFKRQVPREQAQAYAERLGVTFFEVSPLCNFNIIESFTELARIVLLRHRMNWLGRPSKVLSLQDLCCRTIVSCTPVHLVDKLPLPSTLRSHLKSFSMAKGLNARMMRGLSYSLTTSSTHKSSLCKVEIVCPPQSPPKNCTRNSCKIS
Description: peptide or protein array.

B1: HIS-RhoU (natural protein)
chain: not shown
Consider B1, for which the binding result is “binds”.
